Measured values as given in publication PMC10397247.
Read-outs that look alike come from different tables or passages of the source. One block for each binder: values may come before it.

Key:
[1] = biological target: T1, O4-AA; experiment: two-hybrid library CCmax; conditions: mean of both orientations;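 note: natural log of median RNA to DNA barcode read ratio; higher means stronger binding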
T1 chain: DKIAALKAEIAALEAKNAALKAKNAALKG

[2] = biological target: T2, O2-AA; experiment: two-hybrid library CCmax;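 note: natural log of median RNA to DNA barcode read ratio; higher means stronger binding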
T2 chain: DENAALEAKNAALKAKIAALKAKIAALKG

[3] = biological target: T3, O6-AA; experiment: two-hybrid library CCmax; conditions: mean of both orientations;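 note: natural log of median RNA to DNA barcode read ratio; higher means stronger binding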
T3 chain: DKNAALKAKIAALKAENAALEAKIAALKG

[4] = biological target: T4, P9-AA; experiment: two-hybrid library CCmax; conditions: mean of both orientations;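 note: natural log of median RNA to DNA barcode read ratio; higher means stronger binding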
T4 chain: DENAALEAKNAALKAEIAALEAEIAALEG

[5] = biological target: T5, O5-AA; experiment: two-hybrid library CCmax; conditions: mean of both orientations;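 note: natural log of median RNA to DNA barcode read ratio; higher means stronger binding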
T5 chain: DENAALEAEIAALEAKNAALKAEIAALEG

[6] = biological target: T6, O3-AA; experiment: two-hybrid library CCmax; conditions: mean of both orientations;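 note: natural log of median RNA to DNA barcode read ratio; higher means stronger binding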
T6 chain: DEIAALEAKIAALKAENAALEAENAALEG

[7] = biological target: T7, P10-AA; experiment: two-hybrid library CCmax; conditions: mean of both orientations
T7 chain: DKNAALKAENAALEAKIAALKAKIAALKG

[8] = biological target: T8, O8-AA; experiment: two-hybrid library CCmax; conditions: mean of both orientations
T8 chain: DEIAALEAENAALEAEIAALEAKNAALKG

[9] = biological target: T9, O14-AA; experiment: two-hybrid library CCmax
T9 chain: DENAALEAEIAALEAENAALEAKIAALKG

[10] = biological target: T10, O7-AA; experiment: two-hybrid library CCmax; conditions: mean of both orientations
T10 chain: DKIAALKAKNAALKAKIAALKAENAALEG

[11] = biological target: T11, 4H967-bN; experiment: two-hybrid library CCNG1
T11 chain: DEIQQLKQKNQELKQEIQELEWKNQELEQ

[12] = biological target: T12, 4H953-bN; experiment: two-hybrid library CCNG1
T12 chain: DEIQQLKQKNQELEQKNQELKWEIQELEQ

[13] = biological target: T13, O14-bA; experiment: two-hybrid library CCNG1
T13 chain: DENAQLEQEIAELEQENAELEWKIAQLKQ

[14] = biological target: T14, 4H918-bN; experiment: two-hybrid library CCNG1
T14 chain: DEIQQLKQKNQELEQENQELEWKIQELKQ

[15] = biological target: T15, 4H968-bN; experiment: two-hybrid library CCNG1
T15 chain: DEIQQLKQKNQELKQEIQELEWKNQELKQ

[16] = biological target: T16, P9A-bS; experiment: two-hybrid library CCNG1
T16 chain: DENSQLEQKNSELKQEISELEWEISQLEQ

[17] = biological target: T17, P5A-bS; experiment: two-hybrid library CCNG1
T17 chain: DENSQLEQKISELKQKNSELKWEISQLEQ

[18] = biological target: T18, P6A-bS; experiment: two-hybrid library CCNG1
T18 chain: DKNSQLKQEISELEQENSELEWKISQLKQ

[19] = biological target: T19, P6bHq; experiment: two-hybrid library CCNG1
T19 chain: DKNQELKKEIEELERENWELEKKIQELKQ

[20] = biological target: T20, P7A-bS; experiment: two-hybrid library CCNG1
T20 chain: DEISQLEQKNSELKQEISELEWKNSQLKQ

[21] = biological target: T21, P8A-bS; experiment: two-hybrid library CCNG1
T21 chain: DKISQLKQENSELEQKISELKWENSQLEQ

[22] = biological target: T22, O13-AA; experiment: two-hybrid library CCmax
T22 chain: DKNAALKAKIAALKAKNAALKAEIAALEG

[23] = biological target: T23, O11-AA; experiment: two-hybrid library CCmax
T23 chain: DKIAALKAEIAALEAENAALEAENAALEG

[24] = biological target: T24, P7A-bP; experiment: two-hybrid library CCNG1
T24 chain: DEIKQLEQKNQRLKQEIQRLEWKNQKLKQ

[25] = biological target: T25, P8A-bP; experiment: two-hybrid library CCNG1
T25 chain: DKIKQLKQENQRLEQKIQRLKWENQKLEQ

[26] = biological target: T26, P6A-bP; experiment: two-hybrid library CCNG1
T26 chain: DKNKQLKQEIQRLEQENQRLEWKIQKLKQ

[27] = biological target: T27, P9A-bP; experiment: two-hybrid library CCNG1
T27 chain: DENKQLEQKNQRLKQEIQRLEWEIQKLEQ

[28] = biological target: T28, P5A-bP; experiment: two-hybrid library CCNG1
T28 chain: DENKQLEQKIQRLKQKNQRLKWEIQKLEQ

[29] = biological target: T29, 4H264-bH; experiment: two-hybrid library CCNG1
T29 chain: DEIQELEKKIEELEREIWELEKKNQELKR

[30] = biological target: T30, 4H349-bH; experiment: two-hybrid library CCNG1
T30 chain: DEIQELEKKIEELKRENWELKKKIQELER

[31] = biological target: T31, 4H3974-bA; experiment: two-hybrid library CCNG1
T31 chain: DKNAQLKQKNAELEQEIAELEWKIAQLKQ

[32] = biological target: T32, 4H949-bH; experiment: two-hybrid library CCNG1
T32 chain: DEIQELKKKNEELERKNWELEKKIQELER

[33] = biological target: T33, 4H717-bA; experiment: two-hybrid library CCNG1
T33 chain: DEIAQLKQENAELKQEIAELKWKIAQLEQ

[34] = biological target: T34, 4H2931-bH; experiment: two-hybrid library CCNG1
T34 chain: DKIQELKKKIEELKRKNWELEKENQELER

[35] = biological target: T35, 4H56-bH; experiment: two-hybrid library CCNG1
T35 chain: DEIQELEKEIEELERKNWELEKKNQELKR

[36] = biological target: T36, 4H796-bH; experiment: two-hybrid library CCNG1
T36 chain: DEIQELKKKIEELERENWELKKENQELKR

[37] = biological target: T37, 4H3297-bH; experiment: two-hybrid library CCNG1
T37 chain: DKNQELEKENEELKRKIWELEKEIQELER

[38] = biological target: T38, 4H932-bH; experiment: two-hybrid library CCNG1
T38 chain: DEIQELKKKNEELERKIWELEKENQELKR

[39] = biological target: T39, 4H730-bH; experiment: two-hybrid library CCNG1
T39 chain: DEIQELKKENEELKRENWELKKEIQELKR

[40] = biological target: T40, 4H2859-bH; experiment: two-hybrid library CCNG1
T40 chain: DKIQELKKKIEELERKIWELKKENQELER

[41] = biological target: T41, 4H2585-bH; experiment: two-hybrid library CCNG1
T41 chain: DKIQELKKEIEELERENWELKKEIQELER

[42] = biological target: T42, 4H2518-bH; experiment: two-hybrid library CCNG1
T42 chain: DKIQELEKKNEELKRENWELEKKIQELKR

[43] = biological target: T43, 4H3364-bH; experiment: two-hybrid library CCNG1
T43 chain: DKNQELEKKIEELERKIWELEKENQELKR

[44] = biological target: T44, 4H3041-bH; experiment: two-hybrid library CCNG1
T44 chain: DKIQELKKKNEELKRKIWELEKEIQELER

[45] = biological target: T45, 4H584-bH; experiment: two-hybrid library CCNG1
T45 chain: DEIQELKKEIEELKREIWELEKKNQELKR

[46] = biological target: T46, 4H2760-bH; experiment: two-hybrid library CCNG1
T46 chain: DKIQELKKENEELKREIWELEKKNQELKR

[47] = biological target: T47, 4H3381-bH; experiment: two-hybrid library CCNG1
T47 chain: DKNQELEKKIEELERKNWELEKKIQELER

[48] = biological target: T48, O5-bP; experiment: two-hybrid library CCNG1
T48 chain: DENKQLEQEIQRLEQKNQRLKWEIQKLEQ

[49] = biological target: T49, 4H883-bA; experiment: two-hybrid library CCNG1
T49 chain: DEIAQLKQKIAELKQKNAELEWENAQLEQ

[50] = biological target: T50, 4H967-bA; experiment: two-hybrid library CCNG1
T50 chain: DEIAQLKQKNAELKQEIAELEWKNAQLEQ

[51] = biological target: T51, 4H918-bA; experiment: two-hybrid library CCNG1
T51 chain: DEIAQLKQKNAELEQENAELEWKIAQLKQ

[52] = biological target: T52, 4H908-bA; experiment: two-hybrid library CCNG1
T52 chain: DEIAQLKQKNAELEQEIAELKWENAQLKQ

[53] = biological target: T53, 4H953-bA; experiment: two-hybrid library CCNG1
T53 chain: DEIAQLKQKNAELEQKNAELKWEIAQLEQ

[54] = biological target: T54, 4H754-bA; experiment: two-hybrid library CCNG1
T54 chain: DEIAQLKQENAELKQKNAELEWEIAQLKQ

[55] = biological target: T55, 4H968-bA; experiment: two-hybrid library CCNG1
T55 chain: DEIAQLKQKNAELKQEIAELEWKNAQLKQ

[56] = biological target: T56, 4H855-bA; experiment: two-hybrid library CCNG1
T56 chain: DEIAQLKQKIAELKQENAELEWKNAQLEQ

[57] = biological target: T57, 4H457-bA; experiment: two-hybrid library CCNG1
T57 chain: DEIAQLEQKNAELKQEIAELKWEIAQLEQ

[58] = biological target: T58, 4H780-bA; experiment: two-hybrid library CCNG1
T58 chain: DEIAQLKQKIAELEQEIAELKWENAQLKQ

[59] = biological target: T59, 4H683-bA; experiment: two-hybrid library CCNG1
T59 chain: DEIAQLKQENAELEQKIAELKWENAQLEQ

[60] = biological target: T60, 4H575-bA; experiment: two-hybrid library CCNG1
T60 chain: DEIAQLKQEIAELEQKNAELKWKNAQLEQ

[61] = biological target: T61, 4H797-bA; experiment: two-hybrid library CCNG1
T61 chain: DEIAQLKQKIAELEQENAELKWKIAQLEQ

interaction score [1]: -0.13
interaction score ([2]; mean of both orientations): 0.393
interaction score [3]: 1.44
interaction score [4]: -1.61
interaction score [5]: 1.3
interaction score [6]: -1.47
interaction score [7]: -0.458
interaction score [8]: -0.992
interaction score [9]: -1.46
interaction score [10]: 1.84
B1: O14-AA (peptide)
chain: DENAALEAEIAALEAENAALEAKIAALKG

interaction score [11]: -0.522
interaction score [12]: 0.301
interaction score [13]: -0.665
interaction score [14]: -0.715
interaction score [15]: -0.218
B2: 4H918-bN (peptide)
chain: DEIQQLKQKNQELEQENQELEWKIQELKQ

interaction score [16]: -0.973
interaction score [17]: -0.799
interaction score [18]: 0.815
interaction score [19]: 1.33
interaction score [20]: -1.3
interaction score [21]: -1.1
B3: P5A-bS (peptide)
chain: DENSQLEQKISELKQKNSELKWEISQLEQ

interaction score [1]: -1.55
interaction score [2]: -1.61
interaction score [3]: -1.77
interaction score [4]: 0.934
interaction score [5]: -1.37
interaction score [6]: -1.26
interaction score [7]: 1.33
interaction score [8]: 0.633
interaction score [10]: -1.5
B4: O2-AA (peptide)
chain: DENAALEAKNAALKAKIAALKAKIAALKG

interaction score [1]: 1.9
interaction score ([2]; mean of both orientations): -0.959
interaction score [3]: -0.7
interaction score [4]: -1.22
interaction score [5]: -1.47
interaction score [6]: -0.899
interaction score [7]: -0.539
interaction score [8]: -1.67
interaction score ([9]; mean of both orientations): -1.2
interaction score ([22]; mean of both orientations): -1.08
interaction score [23]: -0.752
interaction score [10]: -0.673
B5: O11-AA (peptide)
chain: DKIAALKAEIAALEAENAALEAENAALEG

interaction score [24]: -1.06
interaction score [25]: -0.516
interaction score [26]: 1.7
interaction score [27]: -1.44
interaction score [28]: -1.57
B6: P5A-bP (peptide)
chain: DENKQLEQKIQRLKQKNQRLKWEIQKLEQ

interaction score [29]: -1.77
interaction score [30]: -1.75
interaction score [31]: 0.345
interaction score [32]: 0.12
interaction score [33]: -0.768
interaction score [34]: -0.584
interaction score [35]: -1.35
interaction score [36]: 0.388
interaction score [37]: 0.251
interaction score [38]: 0.604
interaction score [39]: 0.0916
interaction score [40]: -0.0624
interaction score [41]: 0.0674
interaction score [42]: 1
interaction score [43]: 0.178
interaction score [44]: 0.765
interaction score [45]: 0.647
interaction score [46]: -0.186
interaction score [47]: 0.567
B7: 4H2518-bH (peptide)
chain: DKIQELEKKNEELKRENWELEKKIQELKR

interaction score [1]: -1.61
interaction score ([2]; mean of both orientations): -1.56
interaction score [3]: 1.5
interaction score [4]: -1.16
interaction score [5]: -0.257
interaction score [6]: -1.86
interaction score [7]: -1.54
interaction score [8]: 1.18
interaction score ([9]; mean of both orientations): 2.19
interaction score [22]: -1.69
interaction score [10]: -1.54
B8: O13-AA (peptide)
chain: DKNAALKAKIAALKAKNAALKAEIAALEG

interaction score [48]: -1.74
interaction score [49]: -0.18
interaction score [50]: -1.69
interaction score [13]: 0.814
interaction score [51]: -1.15
interaction score [52]: -1.33
interaction score [53]: -1.68
B9: 4H883-bA (peptide)
chain: DEIAQLKQKIAELKQKNAELEWENAQLEQ

interaction score [54]: -1.54
interaction score [55]: 0.0968
interaction score [56]: -1.04
interaction score [57]: -0.968
interaction score [58]: -1.18
interaction score [59]: 0.308
interaction score [13]: -0.0398
interaction score [51]: -0.845
interaction score [60]: -1.69
interaction score [61]: -1.25
interaction score [53]: -0.948
B10: 4H457-bA (peptide)
chain: DEIAQLEQKNAELKQEIAELKWEIAQLEQ
